Test results reported in US20040105862A1.

How the values were obtained:
[1] = target: mouse TIMP-1 (mouse) (UniProt P12032); experiment: BIAcore SPR
[2] = target: mouse TIMP-1 (mouse) (UniProt P12032); experiment: BIAcore SPR, immobilised mouse TIMP-1

Chain of mouse TIMP-1 (mouse) (P12032 25-205 limits assumed): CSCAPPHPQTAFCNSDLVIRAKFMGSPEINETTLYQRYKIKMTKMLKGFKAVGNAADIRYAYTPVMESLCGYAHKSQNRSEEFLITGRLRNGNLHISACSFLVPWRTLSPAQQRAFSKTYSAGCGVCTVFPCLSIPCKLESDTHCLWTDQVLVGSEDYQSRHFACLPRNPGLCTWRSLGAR

B1: MS-BW-17-1 Fab (Fab, V domains shown)
VH: QVQLVQSGAEVKKPGESLKISCKGSGYSFTSYWIGWVRQMPGKGLEWMGIIYPGDSDTRYSPSFQGQVTISADKSISTAYLQWSSLKASDTAMYYCARLTNYFDSIYYDHWGQGTLVTVSS
VL: DIALTQPASVSGSPGQSITISCTGTSSDVGGYNYVSWYQQHPGKAPKLMIYDVSNRPSGVSNRFSGSKSGNTASLTISGLQAEDEADYYCQAFDVAPNGKVFGGGTKLTVLG
Binder B1 has a fold weaker than the affinity to rat TIMP-1 [1] of 225 fold and a Kd [2] of 180 nM.
